Measurements reported in PMC11736000, “Structural and functional analysis of a bile salt hydrolase from the bison microbiome” (The Journal of Biological Chemistry, 2024).

What was measured:
Assay in all cases: steady-state kinetics (KM), o-phthaladehyde assay; HPLC/MS
Format in all cases: biochemical, Arthrobacter citreus
[1] = substrate: C[C@H](CCC(=O)NCC(=O)O)[C@H]1CC[C@H]2[C@@H]3CC[C@@H]4C[C@H](O)CC[C@]4(C)[C@H]3C[C@H](O)[C@]12C
[2] = substrate: C[C@H](CCC(=O)NCC(=O)O)[C@H]1CC[C@H]2[C@@H]3[C@H](O)C[C@@H]4C[C@H](O)CC[C@]4(C)[C@H]3C[C@H](O)[C@]12C
[3] = substrate: C[C@H](CCC(=O)NCCS(=O)(=O)O)[C@H]1CC[C@H]2[C@@H]3CC[C@@H]4C[C@H](O)CC[C@]4(C)[C@H]3C[C@H](O)[C@]12C

B1: bile salt hydrolase from Arthrobacter citreus EINP1 (BSHAc) (Arthrobacter citreus) (protein)
chain: CTGIRYSDGSGNLYLARNLDWTSDFGERVVVTPTGYTTKSPFGAVPAIRHAVIGMGIVQEDTPLYFDCGNDAGLAVAGLNFPGYAQYATEAVDGATNVAAFEFPLWVASQFASVDEVEAALADVVIVDRPINDKYPSSLLHWIIGDSKRAIVVEYTSDGLHVFDDDVDVLANQPGFGWHHENLRNYLNASPDFPEKIVLNRADLVPFGSGSLMRGIPGDYYSPSRFVRAAYVHAHYPGKSTEEENVSRAFHTLQQVAMVDGSAAMGSGEFEKTTYTGLFSSRTMTYYWNTYEDPAVRSVAMADHAADGTELVVV
notes: C-terminally hexahistidine-tagged recombinant BSHAc; NCBI WP_342023006.1
Km [1]: 380 µM
kcat [1]: 1630 ± 40 s⁻¹
kcat/Km [1]: 4.3e+06 ± 400000 M⁻¹ s⁻¹
Km [2]: 1700 µM
kcat [2]: 1500 ± 50 s⁻¹
kcat/Km [2]: 880000 ± 10000 M⁻¹ s⁻¹
Km [3]: 740 µM
kcat [3]: 342 ± 6 s⁻¹
kcat/Km [3]: 460000 ± 50000 M⁻¹ s⁻¹
